Measurements as given in FireProtDB (doi:10.1016/j.jmb.2007.09.088).

Conditions: Niallia circulans; pH 5; 25 °C; Urea; Fluorescence; Sodium acetate 50mM; transition: 2; reversible: yes; structure 1K85

Chitinase A1 Y592F, P20533, sequence (P20533 whole entry Y592F): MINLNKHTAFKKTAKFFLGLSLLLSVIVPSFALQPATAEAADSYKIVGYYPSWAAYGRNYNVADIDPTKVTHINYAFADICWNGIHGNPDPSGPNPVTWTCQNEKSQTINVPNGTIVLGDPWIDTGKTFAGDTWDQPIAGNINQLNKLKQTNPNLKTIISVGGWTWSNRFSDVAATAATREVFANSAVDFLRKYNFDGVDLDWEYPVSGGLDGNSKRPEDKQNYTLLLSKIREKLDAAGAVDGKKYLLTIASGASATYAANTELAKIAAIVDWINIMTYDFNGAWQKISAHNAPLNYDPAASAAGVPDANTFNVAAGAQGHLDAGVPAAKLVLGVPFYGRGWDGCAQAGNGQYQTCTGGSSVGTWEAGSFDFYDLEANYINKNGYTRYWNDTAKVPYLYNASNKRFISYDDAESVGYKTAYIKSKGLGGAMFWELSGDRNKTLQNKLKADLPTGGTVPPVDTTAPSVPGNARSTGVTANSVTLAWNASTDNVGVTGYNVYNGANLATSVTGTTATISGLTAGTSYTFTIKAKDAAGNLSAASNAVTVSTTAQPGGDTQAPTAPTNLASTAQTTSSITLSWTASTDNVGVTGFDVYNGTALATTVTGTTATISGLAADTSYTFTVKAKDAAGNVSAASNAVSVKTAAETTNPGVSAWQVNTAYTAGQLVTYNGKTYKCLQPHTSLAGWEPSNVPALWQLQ
Chitinase A1 S568A, P20533, sequence (P20533 whole entry S568A): as the sequence (P20533 whole entry Y592F) above, with S568A, F592Y counted along it
Chitinase A1 T602A, P20533, sequence (P20533 whole entry T602A): as the sequence (P20533 whole entry Y592F) above, with F592Y, T602A counted along it
Chitinase A1 L566A, P20533, sequence (P20533 whole entry L566A): as the sequence (P20533 whole entry Y592F) above, with L566A, F592Y counted along it
Chitinase A1 V640A, P20533, sequence (P20533 whole entry V640A): as the sequence (P20533 whole entry Y592F) above, with F592Y, V640A counted along it
Chitinase A1 V589A, P20533, sequence (P20533 whole entry V589A): as the sequence (P20533 whole entry Y592F) above, with V589A, F592Y counted along it
Chitinase A1 I576A, P20533, sequence (P20533 whole entry I576A): as the sequence (P20533 whole entry Y592F) above, with I576A, F592Y counted along it
Chitinase A1 V624A, P20533, sequence (P20533 whole entry V624A): as the sequence (P20533 whole entry Y592F) above, with F592Y, V624A counted along it
Chitinase A1 S637A, P20533, sequence (P20533 whole entry S637A): as the sequence (P20533 whole entry Y592F) above, with F592Y, S637A counted along it
Chitinase A1 N596A, P20533, sequence (P20533 whole entry N596A): as the sequence (P20533 whole entry Y592F) above, with F592Y, N596A counted along it
Chitinase A1 F622L, P20533, sequence (P20533 whole entry F622L): as the sequence (P20533 whole entry Y592F) above, with F592Y, F622L counted along it
Chitinase A1 V642A, P20533, sequence (P20533 whole entry V642A): as the sequence (P20533 whole entry Y592F) above, with F592Y, V642A counted along it
Chitinase A1 L614A, P20533, sequence (P20533 whole entry L614A): as the sequence (P20533 whole entry Y592F) above, with F592Y, L614A counted along it
Chitinase A1 I611A, P20533, sequence (P20533 whole entry I611A): as the sequence (P20533 whole entry Y592F) above, with F592Y, I611A counted along it
Chitinase A1 V604A, P20533, sequence (P20533 whole entry V604A): as the sequence (P20533 whole entry Y592F) above, with F592Y, V604A counted along it
Chitinase A1 Y592L, P20533, sequence (P20533 whole entry Y592L): as the sequence (P20533 whole entry Y592F) above, with F592L counted along it
Chitinase A1 Y620L, P20533, sequence (P20533 whole entry Y620L): as the sequence (P20533 whole entry Y592F) above, with F592Y, Y620L counted along it
Chitinase A1 A626G, P20533, sequence (P20533 whole entry A626G): as the sequence (P20533 whole entry Y592F) above, with F592Y, A626G counted along it
Chitinase A1 A609G, P20533, sequence (P20533 whole entry A609G): as the sequence (P20533 whole entry Y592F) above, with F592Y, A609G counted along it
Chitinase A1 Y620F, P20533, sequence (P20533 whole entry Y620F): as the sequence (P20533 whole entry Y592F) above, with F592Y, Y620F counted along it
Chitinase A1 L578A, P20533, sequence (P20533 whole entry L578A): as the sequence (P20533 whole entry Y592F) above, with L578A, F592Y counted along it
Chitinase A1 V594A, P20533, sequence (P20533 whole entry V594A): as the sequence (P20533 whole entry Y592F) above, with F592Y, V594A counted along it

| Substance | ddG of mutation (higher = less stable) [kcal/mol] | denaturant m value [kcal/mol/M] | denaturant midpoint (higher = more stable) [M] | unfolding free energy [kcal/mol] |
| --- | --- | --- | --- | --- |
| Chitinase A1 A609G, P20533 | 2.33 | 1.18 | 4.18 | 4.37 |
| Chitinase A1 A626G, P20533 | 1.88 | 1.22 | 4.57 | 4.82 |
| Chitinase A1 F622L, P20533 | 2.5 | 1.08 | 4.03 | 4.2 |
| Chitinase A1 I576A, P20533 | 3.11 | 1.15 | 3.5 | 3.59 |
| Chitinase A1 I611A, P20533 | 3.63 | 1.13 | 3.05 | 3.07 |
| Chitinase A1 L566A, P20533 | 2.52 | 1.19 | 4.01 | 4.18 |
| Chitinase A1 L578A, P20533 | 5.54 | 1.16 | 1.39 | 1.16 |
| Chitinase A1 L614A, P20533 | 5.26 | 1.13 | 1.63 | 1.44 |
| Chitinase A1 N596A, P20533 | 1 | 0.99 | 5.33 | 5.7 |
| Chitinase A1 S568A, P20533 | -0.1 | 1 | 6.29 | 6.8 |
| Chitinase A1 S637A, P20533 | 1.42 | 1.13 | 4.97 | 5.28 |
| Chitinase A1 T602A, P20533 | -1.49 | 0.89 | 7.49 | 8.19 |
| Chitinase A1 V589A, P20533 | 1.77 | 1.16 | 4.66 | 4.93 |
| Chitinase A1 V594A, P20533 | 4.19 | 1.27 | 2.56 | 2.51 |
| Chitinase A1 V604A, P20533 | 1.58 | 1.1 | 4.83 | 5.12 |
| Chitinase A1 V624A, P20533 | 4.07 | 1.19 | 2.67 | 2.63 |
| Chitinase A1 V640A, P20533 | 1.66 | 1.22 | 4.76 | 5.04 |
| Chitinase A1 V642A, P20533 | 1.44 | 1.15 | 4.95 | 5.26 |
| Chitinase A1 Y592F, P20533 | 1.77 | 1.25 | 4.66 | 4.93 |
| Chitinase A1 Y592L, P20533 | 5.97 | 1.46 | 1.02 | 0.73 |
| Chitinase A1 Y620F, P20533 | 1.52 | 1.31 | 4.88 | 5.18 |
| Chitinase A1 Y620L, P20533 | 4.38 | 1.26 | 2.4 | 2.32 |
